Measurements reported in US20190381171A1, “CO-USE OF ANTI-BCMA ANTIBODY AND ANTIBODY-COUPLED T CELL RECEPTOR (ACTR) IN CANCER THERAPY AND B CELL DISORDERS” (UNUM THERAPEUTICS INC., priority 2017, published 2019).

What was measured:
Assay type in all cases: cell-based, human
NCI-H929 target cells = assay: Cytotoxicity assay with luciferase-expressing target cells and ACTR T-cells
Method: (§1) T-cells expressing ACTR variant SEQ ID NO: 1 (effector; E) and target cells (target; T) were incubated at a 4:1, effector-to-target ratio (120,000 T cells; 30,000 target cells) with increasing concentrations of various chimeric anti-BCMA antibodies (FIG. 3, parts A and B), humanized anti-BCMA antibody clones (FIG. 5, parts A and B), or anti-BCMA antibodies derived from the NCI-murine BCMA CAR sequence shown in WO2010104949A2 (FIG. 6, parts A and B) in a 200-μL reaction volume with RPMI 1640 media supplemented with 10% fetal bovine serum. The chimeric and humanized antibodies analyzed included fucosylated and afucosylated (labeled as “SEA”) versions of the SG16.17 and SG16.45 anti-BCMA antibodies. Reactions were incubated in a CO2 (5%) incubator at 37 degrees C. for 24 or 48 hours. An equal volume of Bright-Glo luciferase assay reagent (Promega; Madison, Wis.) was added prior to a 10 minute room temperature incubation. Luminescence was measured using an EnVision Multi-label plate reader (PerkinElmer; Waltham, Mass.). The percentage of live cells was determined by dividing the luminescence signal of a given sample by the luminescence signal in the absence of antibody and multiplying by 100. The percent cytotoxicity was determined by subtracting the percentage of live cells from 100. The percentage of antibody specific cytotoxicity (%) was then plotted as a function of antibody concentration.
(§2) In FIG. 8, T-cells expressing ACTR variant SEQ ID NO: 1 (effector; E) and target cells (target; T) were incubated at a 4:1, effector-to-target ratio (120,000 T cells; 30,000 target cells) with increasing concentrations of humanized afucosylated (SEA) anti-BCMA antibody SG16.17 in a 200-μL reaction volume in RPMI 1640 media supplemented with 10% fetal bovine serum. Target-cell luminescence was measured and percent cytotoxicity was determined as in Example 3.
(§3) T-cells (effector; E) and target cells (target; T) were incubated at varying effector-to-target (E:T) cell ratios in the presence of 10 μg/mL anti-BCMA antibody (FIG. 13), in a 200-μL reaction volume in RPMI 1640 media supplemented with 10% fetal bovine serum. The antibodies included fucosylated and afucosylated (SEA) versions of the two anti-BCMA antibodies (SG16.17 and SG16.45). […] Target cell luminescence was measured and percent cytotoxicity was determined as in Example 3.
(§4) In FIG. 18, T-cells (effector; E) and target cells (target; T) were incubated at a 4:1, effector-to-target ratio (30,000 target cells) with increasing concentration of humanized afucosylated anti-BCMA antibody hSG16.17SEA in a 200-μL reaction volume in RPMI 1640 media supplemented with 10% fetal bovine serum. […] Target cell luminescence was measured and percent cytotoxicity was determined as described in Example 3.

U266B1 target cells [1] = assay: as above
Method: as §1, §2, §3, §4

U266B1 target cells [2] = assay: Activation markers (CD25, CD69) on ACTR T-cells by flow cytometry; conditions: ACTR variant SEQ ID NO: 1, E:T 1:1, 1 μg/mL antibody, 24 hours
Method: T-cells (effector; E) and target cells (target; T) were incubated at a 1:1, effector-to-target ratio (30,000 T cells; 30,000 target cells) with 1 μg/mL of anti-BCMA antibodies in a 200-μL reaction volume in RPMI 1640 media supplemented with 10% fetal bovine serum. Reactions were incubated in a CO2 (5%) incubator at 37 degrees C. for 24 hours. Geometric Mean Fluorescence intensity (gMFI) of two activation markers, CD25 and CD69 were determined in the total CD3+ CD16+ ACTR T-cell gate via flow cytometry. Briefly, cells were washed twice in staining buffer before being stained with a Live/Dead eFluor-450 dye for 30 min at 4 degrees C. After incubating in the live/dead cell stain, cells were washed twice and incubated with 100 μL of an antibody cocktail consisting of AF488-conjugated anti-human CD3 antibody, APC-conjugated anti-human CD16 antibody, PerCP-Cy5.5-conjugated anti-human CD25 antibody, and BV510-conjugated anti-human CD69 antibody. Subsequently, cells were washed twice, fixed, permeabilized, and stained for intracellular molecules prior to detection via flow cytometry. Flow cytometry gating on CD3+ CD16+ ACTR T-cells was performed after doublet and dead cell exclusion.

[3] = T-cells expressing ACTR variant SEQ ID NO: 1, E:T 4:1, increasing antibody concentrations, 24 or 48 hours

B1: cSG16.45SEA: afucosylated (SEA) version of the chimeric SG16.45 anti-BCMA antibody (antibody, V domains shown)
VH: EVQLVESGGGLVQPGRSLKLSCVASGFTFNDHWMTWIRQAPGRGLEWISSITNTGGATYYLDSVKGRFTISRDNAKSTLYLQMNSLRSEDTATYYCTSPGLYFDYWGQGVMVTVSS
VL: EIVLTQSPTTTAASPGEKVTITCLATSSVSVMYWYQHKSGASPKLLIYSTSSLASGVPDRFSGSGSGTSYSLTINTMEAEDAATYYCHQWSSDPPTFGSGTKLEIKR
How did the “cytotoxicity at varying E:T ratios” value (NCI-H929 target cells; T-cells expressing ACTR variant SEQ ID NO: 1, 10 μg/mL anti-BCMA antibody, 24 hours) turn out when B1 was run?
The value was “increased potency in comparison to the fucosylated antibodies”.

What about the antibody specific cytotoxicity (NCI-H929 target cells; [3]) of the same molecule?
Its antibody specific cytotoxicity is “increased cytotoxicity when compared with the fucosylated antibodies”.

What about the “cytotoxicity at varying E:T ratios” value (U266B1 target cells [1]; T-cells expressing ACTR variant SEQ ID NO: 1, 10 μg/mL anti-BCMA antibody, 48 hours) of the same molecule?
The value was “increased potency in comparison to the fucosylated antibodies”.

And the antibody specific cytotoxicity (U266B1 target cells [1]; [3])?
The antibody specific cytotoxicity was “increased cytotoxicity when compared with the fucosylated antibodies”.

What about the “levels of activation markers CD25 and CD69 (gMFI) on ACTR T-cells” value (U266B1 target cells [2]) of the same molecule?
The value was “enhanced expression of CD25 and CD69 when compared to incubations with their fucosylated counterparts”.
